Assay results taken from article PMC4451422, “Catch me if you can: a biotinylated proteoliposome affinity assay for the investigation of assembly of the MexA-MexB-OprM efflux pump from Pseudomonas aeruginosa” (Frontiers in Microbiology, 2015).
Positions count from the first letter of the chain named.

T1: MexAB: MexA (palmitoylated) and MexB reconstituted together in biotinylated proteoliposomes (Pseudomonas aeruginosa, UniProt P52477 24-383; P52002 1-1046, palmitoylated (lipid anchor); residue not stated)
T1 construct: MexA, Pseudomonas aeruginosa, palmitoylated version; as m1; MexB, Pseudomonas aeruginosa; as m3; also called MexAB proteoliposomes; MexA and MexB; source: each protein from C43 ΔAcrB strain, purified; reconstituted together in proteoliposomes with biotinylated lipids
T1 sequence 1: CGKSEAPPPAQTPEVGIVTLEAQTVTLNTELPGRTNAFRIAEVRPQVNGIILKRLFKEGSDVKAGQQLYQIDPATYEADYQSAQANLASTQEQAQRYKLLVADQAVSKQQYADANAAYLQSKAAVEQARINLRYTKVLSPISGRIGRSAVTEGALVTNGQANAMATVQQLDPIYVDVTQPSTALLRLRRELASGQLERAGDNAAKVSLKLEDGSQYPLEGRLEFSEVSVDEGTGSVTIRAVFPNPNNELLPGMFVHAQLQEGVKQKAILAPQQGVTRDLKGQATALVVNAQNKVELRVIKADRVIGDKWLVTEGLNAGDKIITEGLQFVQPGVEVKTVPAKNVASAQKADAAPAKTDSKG
T1 sequence 2: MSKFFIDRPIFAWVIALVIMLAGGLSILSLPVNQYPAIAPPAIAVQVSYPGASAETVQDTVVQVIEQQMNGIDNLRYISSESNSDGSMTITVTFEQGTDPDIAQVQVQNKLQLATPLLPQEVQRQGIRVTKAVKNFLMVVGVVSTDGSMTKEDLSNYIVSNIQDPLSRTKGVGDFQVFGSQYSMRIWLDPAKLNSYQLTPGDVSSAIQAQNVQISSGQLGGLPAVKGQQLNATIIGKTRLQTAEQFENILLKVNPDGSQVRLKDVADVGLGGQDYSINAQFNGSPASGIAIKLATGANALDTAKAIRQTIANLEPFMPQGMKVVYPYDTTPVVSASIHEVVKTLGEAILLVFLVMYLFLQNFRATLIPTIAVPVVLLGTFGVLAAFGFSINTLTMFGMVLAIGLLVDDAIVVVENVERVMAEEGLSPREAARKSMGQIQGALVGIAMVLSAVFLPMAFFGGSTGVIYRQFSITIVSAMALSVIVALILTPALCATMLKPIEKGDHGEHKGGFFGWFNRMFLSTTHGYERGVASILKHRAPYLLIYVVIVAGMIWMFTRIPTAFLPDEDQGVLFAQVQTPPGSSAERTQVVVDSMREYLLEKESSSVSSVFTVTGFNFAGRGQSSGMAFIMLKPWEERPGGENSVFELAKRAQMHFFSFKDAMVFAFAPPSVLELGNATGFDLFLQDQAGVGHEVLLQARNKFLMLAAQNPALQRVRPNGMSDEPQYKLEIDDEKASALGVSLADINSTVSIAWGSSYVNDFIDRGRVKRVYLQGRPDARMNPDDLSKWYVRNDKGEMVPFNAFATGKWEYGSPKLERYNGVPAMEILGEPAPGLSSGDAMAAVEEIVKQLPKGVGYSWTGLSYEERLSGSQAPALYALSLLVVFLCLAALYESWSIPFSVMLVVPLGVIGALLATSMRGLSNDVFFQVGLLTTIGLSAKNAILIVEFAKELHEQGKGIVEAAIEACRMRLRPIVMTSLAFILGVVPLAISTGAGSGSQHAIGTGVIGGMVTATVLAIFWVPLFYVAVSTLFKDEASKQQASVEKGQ

T2: MexAB_(D407N): MexA (palmitoylated) and the inactive MexB D407N mutant reconstituted together in biotinylated … (Pseudomonas aeruginosa, UniProt P52477 24-383; P52002 1-1046, D407N, palmitoylated (lipid anchor); residue not stated)
T2 construct: MexA, Pseudomonas aeruginosa, palmitoylated version; as m1; also called MexA and MexB_(D407N); source: reconstituted together in proteoliposomes with biotinylated lipids
T2 sequence (looked up) 1: T1 sequence 1
T2 sequence (looked up) 2: T1 sequence 2 with D407N

T3: MexB (Pseudomonas aeruginosa, UniProt P52002 1-1046)
T3 construct: MexB, RND inner membrane transporter of the MexA-MexB-OprM efflux pump, Pseudomonas aeruginosa; Purified by the protocol of Mokhonov et al., 2005 with minor modifications; also called MexB alone; RND pump
T3 sequence: T1 sequence 2

B1: OprM (natural protein)
chain: CSLIPDYQRPEAPVAAAYPQGQAYGQNTGAAAVPAADIGWREFFRDPQLQQLIGVALENNRDLRVAALNVEAFRAQYRIQRADLFPRIGVDGSGTRQRLPGDLSTTGSPAISSQYGVTLGTTAWELDLFGRLRSLRDQALEQYLATEQAQRSAQTTLVASVATAYLTLKADQAQLQLTKDTLGTYQKSFDLTQRSYDVGVASALDLRQAQTAVEGARATLAQYTRLVAQDQNALVLLLGSGIPANLPQGLGLDQTLLTEVPAGLPSDLLQRRPDILEAEHQLMAANASIGAARAAFFPSISLTANAGTMSRQLSGLFDAGSGSWLFQPSINLPIFTAGSLRASLDYAKIQKDINVAQYEKAIQTAFQEVADGLAARGTFTEQLQAQRDLVKASDEYYQLADKRYRTGVDNYLTLLDAQRSLFTAQQQLITDRLNQLTSEVNLYKALGGGWNQQTVTQQQTAKKEDPQA
notes: OprM, outer membrane channel of the MexA-MexB-OprM efflux pump, Pseudomonas aeruginosa; Purified by the protocol of Phan et al., 2010 with minor modifications; also called OMF; OprM proteoliposomes
B2: MexAnp, truncated "cysteine-less" form of MexA without its first 24 residues (non-palmitoylated, soluble) (domain or fragment)
chain: GKSEAPPPAQTPEVGIVTLEAQTVTLNTELPGRTNAFRIAEVRPQVNGIILKRLFKEGSDVKAGQQLYQIDPATYEADYQSAQANLASTQEQAQRYKLLVADQAVSKQQYADANAAYLQSKAAVEQARINLRYTKVLSPISGRIGRSAVTEGALVTNGQANAMATVQQLDPIYVDVTQPSTALLRLRRELASGQLERAGDNAAKVSLKLEDGSQYPLEGRLEFSEVSVDEGTGSVTIRAVFPNPNNELLPGMFVHAQLQEGVKQKAILAPQQGVTRDLKGQATALVVNAQNKVELRVIKADRVIGDKWLVTEGLNAGDKIITEGLQFVQPGVEVKTVPAKNVASAQKADAAPAKTDSKG
notes: MexA, Pseudomonas aeruginosa, without its first 24 residues; non-palmitoylated, soluble; no point mutation is printed; also called soluble version of MexA; soluble MexA; source: generated in the laboratory, produced and purified

What was measured:
Test in all cases: pull-down; MagStrep (streptavidin) magnetic beads sediment biotin-lipid proteoliposomes with MexB or MexAB; OprM in separate proteoliposomes; non-energized: 25 mM Hepes pH7, 100 mM K2SO4, 2 mM MgSO4; 20 min at room temperature; pellets on SDS-PAGE, Coomassie
Settings in all cases: both partners purified
[1] = target: T1, MexAB: MexA (palmitoylated) and MexB …
[2] = target: T2, MexAB_(D407N): MexA (palmitoylated) and …
MexB = target: T3, MexB

Row | Binder | binding result [1] | binding result [2] | binding result (MexB)
1 | B1 | binds | binds | –
2 | B2 | – | – | binds
